# Patent US20260234276A1 (DOMAIN THERAPEUTICS, published 2026)
# Numbering of substitutions follows the chain as printed. Where “and” joins values, the source holds several entries; their conditions need not be identical. Equal entries are not always repeated.
# B1: 3-53 (antibody, V domains shown)
# VH: QVQVQQSGAELARPGASVKMSCKASGYTFTTYAMHWVKQRPGQGLEWIGHINPSSGYSNYNQKFKDKATLTADKSSSTAYMQLSSLTSEDSAVYYCARSEVRRGYFDVWGAGTTVTVSS
# VL: DIQMTQTTSSLSASLGDRVTISCRTSQDIRNYLNWYQQKPDGTVKLLISYTSRLHSGVPSRFSGSGSGTDYSLTISNLEQEDFATYFCQQGNTLPPTFGGGTRVEIK
# B2: 3-50 (antibody, V domains shown)
# VH: EVQLQQSGPELVKPGASVKISCKASVYSFTGSYMHWVKQSHVKSLEWIGRINPYNGATSYNQNFKDKASLTVDKSSSTAYMELHSLTSEDSAVYYCATTLLRLLDYWGQGTTLTVSS
# VL: DIVMTQAAFSNPVTLGTSASISCRSSKSLLHSNGITYLYWYLQKPGQSPQLLIYQMSNLASGVPDRFSSSGSGTDFTLRISRVEAEDVGVYYCAQNLELPWTFGGGTKLEIK
# B3: 3-13 (antibody, V domains shown)
# VH: KVQLQQSGPELVKPGASVKISCKTSGYTFTEYTIHWVQQIHGKSPEWIGGINPNGDTRYDQKFKGKATLTIDKSSSTAYMELRSLTSEDSAVYYCARVARFYGISPYAMDYWGQGTSVTVSS
# VL: DVVMTQTPLSLPVSLGDQASISCRCTQSLLHSNGDTYLHWYLQKPGQSPNLLIYKVSNRFSGVPDRFSGSGSGTDFTLKINRVEAEDLGVYFCSQSTHVPYTFGGGTNLEIK
# B4: 3-21 (antibody, V domains shown)
# VH: QVQLKESGPGLVAPSQSLSITCTVSGLSMNDYVVTWIRQPPGKGLEWLGVIWGGGNTYYNSDLKSRLSITKDNSKSQVFFKMSSLQTDDTAVYYCARRHRDYALDYWGQGISVTVSS
# VL: B3 VL with C25S, T26S, L30V, H31Y, D35N, N50K, N81S, H98Y, Y101P, N108K
# B5: 3-33 (antibody, V domains shown)
# VH: EVQLQQSGPELVKPGASVKISCKTSGYTFTEYTIHWVKQSHGESLEWVGGINPNNGNTRYDQKFKGKATLTIDKSSSPAYMELRSLTSEDSAVYYCARVARSSGSGPYAMDYWGQGTSVTVSS
# VL: B3 VL with S32T, N50K, N81S, N108K
# B6: Ref #3 (antibody, human IgG1, V domains shown)
# VH: QVQLVQSGAEVKKPGASVKVSCKASGYTFTSYYMHWVRQAPGQGLEWMGIINPSGGSTSYAQKFQGRVTMTRDTSTSTVYMELSSLRSEDTAVYYCARAVRNRFRFDYWGQGTLVTVSS
# VL: QSALTQPASVSGSPGQSITISCTGTSSDVGSYNLVSWYQQHPGKAPKLMIYEVSKRPSGVSNRFSGSKSGNTASLTISGLQAEDEADYYCSSYAGSSTFVVFGGGTKLTVL
# B7: Ref #4 (antibody, human IgG1, V domains shown)
# VH: EVQLVESGGGLVQPGGSLKLSCAASGFTFNTYAMNWVRQASGKGLEWVARIRSKANNYATYYADSVKDRFTISRDDSKNTLYLQMNNLKTEDTAVYYCVRDRSRGEDYAMDYWGQGTLVTVSS
# VL: DIVMTQSPLSLPVTPGEPASISCRSSKSLLHSNANTYLYWFLQKPGQSPQLLIYRMSNLASGVPDRFSGSGSGTAFTLKISRVEAEDVGVYYCMQHLEYPFTFGQGTKLEIK
# B8: 3-65 (Fab, V domains shown)
# VH: QVTLKESGGGVVQPGRSLRLSCAASEFTFRNYAMHWVRQAPGKGLEWVAVISYDGSNKYYADSVKGRFTISRDISKNMVFLQMNSLRADDTAVYYCARGTFLAYWGQGTLVTVSS
# VL: EIVLTQSPLSLPVTLGQPASISCRSSQSLVHSDGNTYLSWFQQRPGQSPRRLIYKVSNRDSGVPDRFSGSGSGTDFTLKISRVEAEDVGVYYCMQGIHLPLTFGGGTKLEIKR
# notes: soluble Fab from phage display library huFabL-4, Flag tag
# B9: 3-66 (Fab, V domains shown)
# VH: QVQLVESGGGVVQPGRSLRLSCAASGFPFRTYGMHWVRQAPGKGLEWVSSISSSSSYIYYADSVKGRFTISRDNAKNSLELQMNSLRAEDTAVYYCARTTRGAFDIWGKGTMVTVSS
# VL: LSSELTQDPAVSVALGQTVRITCQGDSLRSYYASWYQQKPGQAPLLVIYGRNNRPSGIPDRFSGSSSGNTASLTITGAQAEDEADYYCNSRDSSGVPFGTGTQLTVLS
# notes: as for B8
# Target: T1, human CCR8 (human, UniProt P51685 1-355)
# Assay: cell-based or functional assay
Binder,"IC50 (Gi2 BRET, pH 6.5)","IC50 (Gi2 BRET, pH 7.4)"
B1,0.012 µg/ml and 0.08 nM,0.015 µg/ml and 0.097 nM
B2,0.162 µg/ml and 1.08 nM,0.152 µg/ml and 1.01 nM
B3,0.051 µg/ml and 0.34 nM,0.059 µg/ml and 0.396 nM
B4,0.414 µg/ml and 2.76 nM,0.359 µg/ml and 2.4 nM

# Target: T1, human CCR8
# Assay: cell-based or functional assay
# Remark: another data set of the same source
Binder,"hCCL1 (100 nM) residual response, Protocol #2, mAb 0.08 µg/mL","hCCL1 (100 nM) residual response, Protocol #2, mAb 0.4 µg/mL","hCCL1 (100 nM) residual response, Protocol #2, mAb 10 µg/mL","hCCL1 (100 nM) residual response, Protocol #3, mAb 0.05 µg/mL","hCCL1 (100 nM) residual response, Protocol #3, mAb 0.5 µg/mL","hCCL1 (100 nM) residual response, Protocol #3, mAb 5 µg/mL"
B1,52%,68%,53%,76%,62%,59%
B2,97%,96%,84%,96%,81%,73%
B3,101%,93%,100%,92%,81%,73%
B5,104%,46%,28%,80%,57%,45%
B4,99%,97%,97%,99%,84%,75%

# Target: T1, human CCR8
# Assay: cell-based or functional assay
# Remark: another data set of the same source
row,Binder,"Top plateau value (% of hCCL1 100 nM) with 5 µg/mL mAb, Protocol #3"
1,B1,948%
2,B2,292%
3,B3,663%
4,B5,855%
5,B4,133%

# Target: CCR8 SNAP-tag (human, UniProt P51685 1-355, SNAP-tag labelled with Lumi4-Terbium)
# Assay: cell-based or functional assay
Binder,% of internalization at 1 µg/ml mAb (HTRF),% of internalization at 10 µg/ml mAb (HTRF)
B6,100%,90%
B7,95%,103%

# Target: pm5 (human, sulfated tyrosines at Y15 and Y17)
# Assay: ELISA on coated peptide [cont.]
# Summary of the method: (§1)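 Anti-CCR8 mAbs tested at 1 μg/mL and then diluted 1/10 on CCR8-related peptides coated at 500 ng/mL in carbonate/bicarbonate buffer, 90 min at room temperature. Bound antibody developed with TMB for 15 min; optical density read as mAb reactivity.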
# pm5 (human, sulfated tyrosines at Y15 and Y17), sequence (peptide, as listed by the source): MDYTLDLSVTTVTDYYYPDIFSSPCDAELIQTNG
row,Binder,binding result
1,B1,binds
2,B3,binds
3,B5,binds
4,B4,binds

# Target: pm6 (human, sulfated tyrosines at Y16 and Y17)
# Assay: ELISA on coated peptide [cont.]
# Summary of the method: as §1
# pm6 (human, sulfated tyrosines at Y16 and Y17), sequence (peptide, as listed by the source): as above
row,Binder,binding result
1,B1,binds
2,B3,binds
3,B5,binds
4,B4,binds

# Target: pm8 (human, sulfated tyrosines at Y15, Y16 and Y17)
# Assay: ELISA on coated peptide [cont.]
# Summary of the method: as §1
# pm8 (human, sulfated tyrosines at Y15, Y16 and Y17), sequence (peptide, as listed by the source): as above
row,Binder,binding result
1,B1,binds
2,B3,binds
3,B5,binds
4,B4,binds

# Target: pm3 (human, sulfated tyrosine at Y17)
# Assay: ELISA on coated peptide [cont.]
# Summary of the method: as §1
# pm3 (human, sulfated tyrosine at Y17), sequence (peptide, as listed by the source): as above
row,Binder,binding result
1,B1,binds
2,B3,binds
3,B5,binds
4,B4,binds

# Target: T1, human CCR8
# Assay: flow cytometry, hCCR8 transfected CHOK1 cells
Binder,% positive cells,MFI fold change to isotype ctrl
B1,77%,9.2 fold
B2,34.7%,2.34 fold
B3,85.7%,9.8 fold
B5,56.2%,4.78 fold
B4,85.2%,11.9 fold

# Target: T2, streptavidin (UniProt P22629 37-163, limits assumed)
# T2 construct: control well without peptide
# Assay: ELISA, soluble Fab on streptavidin-coated control well without peptide
# Experimental: (§2) The wells of a microtiter plate were coated with 200 ng streptavidin protein in 100 μL Coating Buffer (0.1 M NaHCO₃, pH 8.6), and then incubated overnight at 4° C. For negative control, the wells were coated with PBS to determine non-specific binding. After shaking out the coating solution, the wells were washed three times with washing buffer (0.1% Tween 20-PBS). To prevent non-specific binding, 200 μL Blocking Buffer (3% BSA-PBS) was adding and incubated for 2 h at 37° C. After shaking out the blocking buffer, the wells were incubated with 50 ng biotinylated target peptide (SEQ ID NO: 420; see Example 10) in 100 μL Blocking Buffer for 1 h at 37° C. The control well was incubated with only 100 μL Blocking Buffer for 1 h at 37° C. After shaking out the biotinylated target peptide or buffer solution, the wells were washed 3 times with the washing buffer (0.1% Tween 20-PBS). Then 100 μL supernatant containing soluble Fab were added and incubated for 2 h at 37° C. Following three washes with washing buffer (0.1% Tween 20-PBS) for 3 times, 100 μL/well HRP conjugate of mouse anti-Flag tag mAb (Sigma A8592, 1:5000) diluted in Blocking Buffer were added and incubated for 1 h at 37° C. After washings, 3,3′,5,5′-tetramethylbenzidine (TMB) (Sigma) were added for 5 to 30 min at room temperature. The reaction was stopped by adding 50 μL/well of 1 M H₂SO₄.
# T2 sequence (P22629 37-163 limits assumed): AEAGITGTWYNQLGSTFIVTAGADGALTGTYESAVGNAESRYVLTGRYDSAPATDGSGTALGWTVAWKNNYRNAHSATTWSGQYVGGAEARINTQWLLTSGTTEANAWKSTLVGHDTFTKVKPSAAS
row,Binder,Optical Density
1,B8,0.07 OD450
2,B9,0.1 OD450

# Target: T3, biotinylated CCR8 peptide (human, N-terminal biotin)
# T3 construct: first 34 residues of human CCR8 plus a C-terminal K; also called biotinylated target peptide
# Assay: ELISA, soluble Fab on biotinylated CCR8 peptide captured on streptavidin
# Experimental: as §2
row,Binder,Optical Density
1,B8,3.29 OD450
2,B9,2.56 OD450
